These results are taken from publication doi:10.1101/2022.11.09.515782.

The target of this assay is glycophorin A TMD, BLaTM chimera. As to the kind of experiment: split reporter.

Regarding “glycophorin A TMD, BLaTM chimera (domain or fragment)”, the ampicillin LD50 is 100 µg/mL.
